In patent publication US20140287419A1, “Compositions Having Dicamba Decarboxylase Activity and Methods of Use” (priority 2013, published 2014):

B1: 52 (protein, listed as Streptomyces sp.)
chain: MAKIIALEEHFSDPAVAKAGAARAQALSPGFAASYSPASGLPYSPSPEVLENLAEKRLADMDAGGITMQVLSGLSAQTVPADVAPALVAGSNDKAAAAVRAHPDRFAAFAALPTAAPEAAVAELDRSVNELGFVGTLIMGRTEGEFLDAPRFEPILARAAALKVPVFLHPGVPPREITDSNYAAGLPTGIGTRLQTAAWGWHQETAVHFLHLVHSGVLDRYPDLQFILGHWGETIPFYLDRVDEALPQRATGLDRSFHEYFRENVYLAPSGMWSQAQLRFCLETFPLERIVFAVDYPFIGNEGAVPFLEKAELPEADKRKIAHENAERLLGL
B2: 53 (protein, listed as Granulicella tundricola)
chain: MARTITLEEHFVTDSFLRATGAYDKPAPPWLAQLQPKLLDLGDGRIAAMDEAGIDLQVLSLAALGFDALDAATATPLVHDINDELAAAVRANPTRLAAFASLALKDPQSAARELERAIQKLGFRGVLLDGTTDGLFLDDPRFTPVFEAAVALNVPIYLHPAPPPESVFDTYFTGLPEGVGQMLSIAGWGWHAETALHTLRLITNGVFDRYPTLQLIIGHMGEMLPMALARTSKALSHAARLRQPVAAYFQSNIHLTTSGYFTQPPLRCALDVVGIDRLMFSIDYPFSANTLGRDYLTELEQTLTPEDLAKLIHRNAESLLNLS
B3: 54 (protein, listed as Streptomyces sp.)
chain: MAKIIALEEHFSDPAVAKAGAARAQALSPGFAASYSPASGLPYSPSPEVLENLAEKRLADMDAGGITMQVLSGLGAQTVPADVAPALVAGSNDKAAAAVRAHPDRFAAFAALPTAAPEAAVAELDRSINELGFVGTLIMGRTEGEFLDAPRFEPILARAAALKVPVFLHPGVPPREITDSNYAAGLPTGIGTRLQTAAWGWHQETAVHFLHLVHSGVLDRYPGLQFILGHWGEMIPFYLDRVDEALPQRATGLDRSFHEYFRENVYLAPSGMWSQAQLRFCLETVPLERIVFAVDYPFIGNEGAVPFLEKAELPEADKRKIAHENAERLLGL
B4: 55 (protein, listed as Serratia sp.)
chain: MAKIICLEEHTLDKALVMASMPAALEQAPFLSDWGKTVTDGNLPDRSRPQIEKNDLINIKGADIGRGRLDDMDVAGITMQVLSVGGFPHLISAAEGVDLNRAANDRLADAVNAHPDRFAAFATLPWAQPDSAEKELERAVKELGFKGALLNGRPSTHFLDHPDYDGLLARFNALGVPLYLHPGLPVRSVQQAYYGGFSDEVTARLSMFGWGWHHEAGIHLLRLILSGAFDKYPNLQVISGHWGEMLPFWLQRLDDSLPQAATGLRRTIAQTFKEQVYVTPSGMLTLPHFQFIYALLGAERIIFSVDYPYQTLDGVKAFIQSLPVPEEAKEAIAFRNAERLLGLTS
B5: 56 (protein)
chain: MAKIICLEEHYLDSELGRACMPVALEQAPFLGDWGKTVADGHNPDRSRPQIEKNALINAKGADLGSRRLRDMDEAGITLQILSVGGFPQLAPEDEAVTLNTAANDRLAEAVRNHPDRFAAFATLPWAQPKDAENELVRAVEKLGFKGALLNGRPSSCFLDHPDYDSLLSRFNKLNVPLYLHPGLPLKSVQQAYFTGFSAEVNARLSMFGWGWHHEAGIHLLRLMLSGAFDKYPNMQVISGHWGEMLPFWLQRLDDSLPLAATGLSRTLTRTFQEHVYVTPSGMLTLPHFKFIYELMGAERILFSVDYPYQTLDGVKTFIDSLPVNKAEKEAIAFRNAERLLGITA
modifications: Enterobacter aerogenes
B6: 57 (protein)
chain: MAKLICVEEHVLDPAVGAATQSLVRAEAPYLPDWGSRVLDGRHVADRSRPHVIAPSESARKALEMGEPRLADMDAASIDMQVLSYGGFPQLLPAAQAIDLNRAANDKLALAAQAHPARFAGFATLPWQAPEAAARELERAVKQLGLKGALINGRPGDTFLDDARYAPILAAFDELKVPLYVHPGLPLPAVQAPYYGGFERELSARLAMFAWGWHNEAGIQVVRMLLAGVFDRHPRLQLISGHWGEMVPFFLQRLEDSIPQEASGLQRPIVQTYREHVYISPSGMFTLPHFQFIHALMGAQRILYSIDYPYQSLDGARAFIERLPISDTDKALIAHRNAERLLHL
modifications: Collimonas fungivorans

Experiment: 14C assay with IPTG-induced recombinant E. coli cells (14CO2 capture from [14C]-carboxyl-labeled dicamba)
Conditions: for Dicamba Decarboxylase Activity: IPTG-induced recombinant E. coli cells, [14C]-carboxyl-labeled dicamba, 14CO2 capture; for Enzymatic Detection level: dicamba decarboxylation activity of the protein of the given SEQ ID NO

Row | Molecule | Dicamba Decarboxylase Activity | Enzymatic Detection level
1 | B1 | High | High
2 | B2 | High | High
3 | B3 | High | High
4 | B4 | High | High
5 | B5 | High | High
6 | B6 | High | High
